The record followed here is article PMC9482650, “Quantitative fragmentomics allow affinity mapping of interactomes” (Nature Communications, 2022).

T1: APBA2_2, Q99767
T1 sequence (Q99767 654-744, limits assumed, looked up): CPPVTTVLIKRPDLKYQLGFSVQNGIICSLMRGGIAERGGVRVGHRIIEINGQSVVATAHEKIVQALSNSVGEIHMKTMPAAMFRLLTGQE

T2: ARHGAP21, Q5T5U3
T2 sequence (Q5T5U3 45-169, limits assumed, looked up): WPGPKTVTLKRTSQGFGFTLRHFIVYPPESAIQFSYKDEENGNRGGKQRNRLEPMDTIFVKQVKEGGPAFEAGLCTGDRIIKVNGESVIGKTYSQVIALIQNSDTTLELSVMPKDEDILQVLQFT

T3: CARD11, Q9BXL7
T3 sequence (Q9BXL7 662-765, limits assumed, looked up): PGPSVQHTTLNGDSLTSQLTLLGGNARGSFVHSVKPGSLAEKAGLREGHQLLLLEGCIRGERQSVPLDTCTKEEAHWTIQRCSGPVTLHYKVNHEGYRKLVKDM

T4: DFNB31_1, Q9P202
T4 sequence (Q9P202 135-233, limits assumed, looked up): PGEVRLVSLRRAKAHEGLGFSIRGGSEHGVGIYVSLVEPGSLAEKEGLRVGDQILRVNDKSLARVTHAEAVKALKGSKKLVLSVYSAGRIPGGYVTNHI

T5: DFNB31_3, Q9P202
T5 sequence (Q9P202 811-907, limits assumed, looked up): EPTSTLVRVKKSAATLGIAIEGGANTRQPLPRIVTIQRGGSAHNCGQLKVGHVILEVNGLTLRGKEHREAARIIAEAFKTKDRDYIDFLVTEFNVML

T6: FRMPD1, Q5SYB0
T6 sequence (Q5SYB0 52-145, limits assumed, looked up): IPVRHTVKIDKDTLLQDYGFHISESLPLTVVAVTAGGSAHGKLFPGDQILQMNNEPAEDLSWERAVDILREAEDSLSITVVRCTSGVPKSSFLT

T7: HTRA3, P83110
T7 sequence (P83110 354-453, limits assumed, looked up): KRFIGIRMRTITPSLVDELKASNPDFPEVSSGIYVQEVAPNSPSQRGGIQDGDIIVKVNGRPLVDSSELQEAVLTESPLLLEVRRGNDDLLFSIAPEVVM

T8: PARD3B_1, Q8TEW8
T8 sequence (Q8TEW8 196-299, limits assumed, looked up): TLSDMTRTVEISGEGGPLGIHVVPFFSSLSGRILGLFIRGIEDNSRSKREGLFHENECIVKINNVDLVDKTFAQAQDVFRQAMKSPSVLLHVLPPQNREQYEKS

T9: PDZD7_3, Q9H5P4
T9 sequence (Q9H5P4 857-944, limits assumed, looked up): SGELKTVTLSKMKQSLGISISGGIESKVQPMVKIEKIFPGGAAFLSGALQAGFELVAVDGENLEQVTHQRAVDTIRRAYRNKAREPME

T10: SIPA1L2, Q9P2F8
T10 sequence (Q9P2F8 945-1036, limits assumed, looked up): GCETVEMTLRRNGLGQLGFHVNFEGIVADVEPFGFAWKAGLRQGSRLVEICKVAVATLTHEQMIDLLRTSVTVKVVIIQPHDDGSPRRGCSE

T11: SNTA1, Q13424
T11 sequence (Q13424 82-180, limits assumed, looked up): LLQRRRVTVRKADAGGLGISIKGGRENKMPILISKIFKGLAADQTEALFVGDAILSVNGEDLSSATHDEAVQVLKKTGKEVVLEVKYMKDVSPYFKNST

T12: SNTG1, Q9NSN8
T12 sequence (Q9NSN8 52-150, limits assumed, looked up): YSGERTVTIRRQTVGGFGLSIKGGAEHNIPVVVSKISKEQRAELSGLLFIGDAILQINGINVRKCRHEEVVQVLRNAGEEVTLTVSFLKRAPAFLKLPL

T13: TJP3_3, O95049
T13 sequence (O95049 375-456, limits assumed, looked up): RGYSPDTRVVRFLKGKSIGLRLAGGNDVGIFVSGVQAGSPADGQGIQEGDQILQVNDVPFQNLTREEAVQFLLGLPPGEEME

B1: TNRC6B, Q9UPQ9 (peptide)
chain: DLLGGGSDSI
B2: PRLHR, P49683 (peptide)
chain: GQNMTVSVVI

Chain of SCRIB_3, Q14160 (Q14160 999-1103): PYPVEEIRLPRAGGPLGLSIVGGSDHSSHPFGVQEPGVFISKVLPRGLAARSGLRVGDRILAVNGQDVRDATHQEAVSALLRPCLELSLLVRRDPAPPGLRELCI
Chain of NHERF4_2, Q86UT5 (Q86UT5 220-308): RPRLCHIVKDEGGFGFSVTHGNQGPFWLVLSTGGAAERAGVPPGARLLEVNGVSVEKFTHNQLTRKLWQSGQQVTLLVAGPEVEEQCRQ
Chain of GORASP1, Q9BQQ3 (Q9BQQ3 1-208): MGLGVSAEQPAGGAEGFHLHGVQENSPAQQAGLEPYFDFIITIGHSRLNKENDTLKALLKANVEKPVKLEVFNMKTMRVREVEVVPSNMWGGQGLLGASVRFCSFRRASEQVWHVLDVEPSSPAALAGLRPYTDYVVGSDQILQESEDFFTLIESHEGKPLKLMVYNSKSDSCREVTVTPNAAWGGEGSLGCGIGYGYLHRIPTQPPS
Chain of PARD3_3, Q8TEW0 (Q8TEW0 582-685): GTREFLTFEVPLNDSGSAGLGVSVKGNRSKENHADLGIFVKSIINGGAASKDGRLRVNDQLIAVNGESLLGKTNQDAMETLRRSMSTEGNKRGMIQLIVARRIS
Chain of GRIP2_3, Q9C0E4 (Q9C0E4 238-339): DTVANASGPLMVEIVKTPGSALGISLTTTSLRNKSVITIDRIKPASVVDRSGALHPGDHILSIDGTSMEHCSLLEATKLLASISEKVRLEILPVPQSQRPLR
Chain of SCRIB_1, Q14160 (Q14160 718-814): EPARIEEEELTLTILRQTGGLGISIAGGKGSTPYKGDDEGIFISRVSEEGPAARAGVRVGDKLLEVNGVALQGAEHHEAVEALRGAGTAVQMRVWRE
Chain of TJP2_1, Q9UDY2 (Q9UDY2 24-128): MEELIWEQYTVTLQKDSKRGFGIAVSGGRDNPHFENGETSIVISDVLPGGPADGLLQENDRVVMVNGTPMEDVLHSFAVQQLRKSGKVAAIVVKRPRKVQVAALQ

One assay deals with T1, APBA2_2, Q99767. The experiment in a line: holdup assay. Further details: key: below the threshold = too weak to quantify, mostly under pKd 3.1 to 4. The conditions noted are these: plain residues with an end cap or a label only (N-terminal biotin on a linker: ado-ado).
As usually defined, the pKd is the negative decadic logarithm of the Kd, by convention in mol/L. For the molecule B1, the negative logarithm of the Kd (pKd) result is “below the threshold”.
Take B2: the pKd result was “below the threshold”.

For the next assay, the target named is T2, ARHGAP21, Q5T5U3. The experiment in a line: holdup assay. Further details: key: below the threshold = too weak to quantify, mostly under pKd 3.1 to 4. The conditions noted are these: plain residues with an end cap or a label only (N-terminal biotin on a linker: ado-ado).
Consider B1, for which the negative logarithm of the Kd (pKd) entry was “below the threshold”.
On the same count and under the same terms, with B2 the entry was “below the threshold”.

The next assay concerns the target T3, CARD11, Q9BXL7. In words: holdup assay. Further details: key: below the threshold = too weak to quantify, mostly under pKd 3.1 to 4. The conditions noted are these: plain residues with an end cap or a label only (N-terminal biotin on a linker: ado-ado).
In the case of B1, the pKd result is listed as “below the threshold”.
B2: the negative-log Kd (pKd) entry is listed as “below the threshold”.

The target of a further assay is T4, DFNB31_1, Q9P202. In words: holdup assay. Further details: key: below the threshold = too weak to quantify, mostly under pKd 3.1 to 4. The conditions noted are these: plain residues with an end cap or a label only (N-terminal biotin on a linker: ado-ado).
Consider B1, for which the pKd entry is reported as “below the threshold”.
Still for that read-out and setting: under B2 stands “below the threshold”.

Another assay concerns the target T5, DFNB31_3, Q9P202. The experiment in a line: holdup assay. Further details: key: below the threshold = too weak to quantify, mostly under pKd 3.1 to 4. The conditions noted are these: plain residues with an end cap or a label only (N-terminal biotin on a linker: ado-ado).
Turning to B1, the pKd was determined as 4.01.
The same measure, in the same setting: with B2 the figure was 4.21.

The target of another assay is T6, FRMPD1, Q5SYB0. The experiment in a line: holdup assay. More on the design: key: below the threshold = too weak to quantify, mostly under pKd 3.1 to 4. The conditions noted are these: plain residues with an end cap or a label only (N-terminal biotin on a linker: ado-ado).
Take B1: the pKd result is on record as “below the threshold”.
Consider B2, for which the pKd result is listed as “below the threshold”.

A further assay concerns the target GORASP1, Q9BQQ3. In words: holdup assay. More on the design: key: below the threshold = too weak to quantify, mostly under pKd 3.1 to 4. The conditions noted are these: plain residues with an end cap or a label only (N-terminal biotin on a linker: ado-ado).
For B1, the pKd entry is reported as “below the threshold”.
Regarding B2, the pKd worked out at 4.28.

A further assay concerns the target GRIP2_3, Q9C0E4. In words: holdup assay. The conditions noted are these: plain residues with an end cap or a label only (N-terminal biotin on a linker: ado-ado). More on the design: key: below the threshold = too weak to quantify, mostly under pKd 3.1 to 4.
Take B1: the negative logarithm of the Kd (pKd) entry is listed as “below the threshold”.
In the case of B2, the negative-log Kd (pKd) result is given as “below the threshold”.

A further assay deals with GRIP2_7, Q9C0E4. The experiment in a line: holdup assay. The conditions noted are these: plain residues with an end cap or a label only (N-terminal biotin on a linker: ado-ado). More on the design: key: below the threshold = too weak to quantify, mostly under pKd 3.1 to 4.
Chain of GRIP2_7, Q9C0E4 (Q9C0E4 934-1023): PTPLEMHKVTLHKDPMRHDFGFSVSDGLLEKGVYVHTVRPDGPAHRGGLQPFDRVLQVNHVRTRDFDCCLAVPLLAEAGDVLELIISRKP
As to B1, the pKd result is “below the threshold”.
Consider B2, for which the negative-log Kd (pKd) result is “below the threshold”.

For the next assay, the target named is T7, HTRA3, P83110. The experiment in a line: holdup assay. More on the design: key: below the threshold = too weak to quantify, mostly under pKd 3.1 to 4. The conditions noted are these: plain residues with an end cap or a label only (N-terminal biotin on a linker: ado-ado).
In the case of B1, the pKd entry was “below the threshold”.
Regarding B2, the pKd came out at 3.72.

In the next assay the target is LIMK2, P53671. The experiment in a line: holdup assay. The conditions noted are these: plain residues with an end cap or a label only (N-terminal biotin on a linker: ado-ado). More on the design: key: below the threshold = too weak to quantify, mostly under pKd 3.1 to 4.
Chain of LIMK2, P53671 (P53671 143-248): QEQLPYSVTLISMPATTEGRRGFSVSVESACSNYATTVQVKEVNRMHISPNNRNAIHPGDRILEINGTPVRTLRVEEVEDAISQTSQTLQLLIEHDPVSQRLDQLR
As to B1, the negative logarithm of the Kd (pKd) result is “below the threshold”.
The same measure, in the same setting: under B2 stands “below the threshold”.

In another assay the target is MAGI1_2, Q96QZ7. In words: holdup assay. Further details: key: below the threshold = too weak to quantify, mostly under pKd 3.1 to 4. The conditions noted are these: plain residues with an end cap or a label only (N-terminal biotin on a linker: ado-ado).
Chain of MAGI1_2, Q96QZ7 (Q96QZ7 456-580): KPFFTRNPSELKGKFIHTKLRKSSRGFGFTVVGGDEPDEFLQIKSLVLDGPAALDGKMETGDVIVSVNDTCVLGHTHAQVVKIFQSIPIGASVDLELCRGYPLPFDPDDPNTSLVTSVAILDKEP
On to B1, for which the negative-log Kd (pKd) entry is reported as “below the threshold”.
With B2, the negative-log Kd (pKd) result is on record as “below the threshold”.

The next assay concerns the target NHERF4_2, Q86UT5. The experiment in a line: holdup assay. Further details: key: below the threshold = too weak to quantify, mostly under pKd 3.1 to 4. The conditions noted are these: plain residues with an end cap or a label only (N-terminal biotin on a linker: ado-ado).
On to B1, for which the pKd entry is “below the threshold”.
On the same count and under the same terms, with B2 the entry was “below the threshold”.

The next assay deals with T8, PARD3B_1, Q8TEW8. The experiment in a line: holdup assay. More on the design: key: below the threshold = too weak to quantify, mostly under pKd 3.1 to 4. The conditions noted are these: plain residues with an end cap or a label only (N-terminal biotin on a linker: ado-ado).
For B1, the pKd entry is given as “below the threshold”.
On the same count and under the same terms, under B2 stands 4.86.

A further assay has as its target PARD3_3, Q8TEW0. In words: holdup assay. Further details: key: below the threshold = too weak to quantify, mostly under pKd 3.1 to 4. The conditions noted are these: plain residues with an end cap or a label only (N-terminal biotin on a linker: ado-ado).
With B1, the pKd result is reported as “below the threshold”.
Molecule B2 gave a negative-log Kd (pKd) of 4.1.

Another assay deals with T9, PDZD7_3, Q9H5P4. In words: holdup assay. The conditions noted are these: plain residues with an end cap or a label only (N-terminal biotin on a linker: ado-ado). More on the design: key: below the threshold = too weak to quantify, mostly under pKd 3.1 to 4.
With B1, the pKd entry was “below the threshold”.
B2 yielded a negative-log Kd (pKd) of 4.4.

A further assay has as its target SCRIB_1, Q14160. In words: holdup assay. Further details: key: below the threshold = too weak to quantify, mostly under pKd 3.1 to 4. The conditions noted are these: plain residues with an end cap or a label only (N-terminal biotin on a linker: ado-ado).
As for B1, the negative-log Kd (pKd) result is recorded as “below the threshold”.
In turn, B2 gave a pKd of 3.65.

The next assay has as its target SCRIB_3, Q14160. In words: holdup assay. Further details: key: below the threshold = too weak to quantify, mostly under pKd 3.1 to 4. The conditions noted are these: plain residues with an end cap or a label only (N-terminal biotin on a linker: ado-ado).
On to B1, for which the pKd entry is listed as “below the threshold”.
On the same count and under the same terms, under B2 stands 3.66.

In another assay the target is T10, SIPA1L2, Q9P2F8. In words: holdup assay. Further details: key: below the threshold = too weak to quantify, mostly under pKd 3.1 to 4. The conditions noted are these: plain residues with an end cap or a label only (N-terminal biotin on a linker: ado-ado).
Take B1: the pKd result is recorded as “below the threshold”.
The same measure, in the same setting: under B2 stands 3.54.

A further assay addresses T11, SNTA1, Q13424. The experiment in a line: holdup assay. More on the design: key: below the threshold = too weak to quantify, mostly under pKd 3.1 to 4. The conditions noted are these: plain residues with an end cap or a label only (N-terminal biotin on a linker: ado-ado).
As to B1, the negative logarithm of the Kd (pKd) result is on record as “below the threshold”.
The same measure, in the same setting: with B2 the figure was 3.89.

Another assay concerns the target T12, SNTG1, Q9NSN8. In words: holdup assay. More on the design: key: below the threshold = too weak to quantify, mostly under pKd 3.1 to 4. The conditions noted are these: plain residues with an end cap or a label only (N-terminal biotin on a linker: ado-ado).
B1: the pKd result is on record as “below the threshold”.
With B2, the pKd result is “below the threshold”.

In another assay the target is TJP1_2, Q07157. In words: holdup assay. More on the design: key: below the threshold = too weak to quantify, mostly under pKd 3.1 to 4. The conditions noted are these: plain residues with an end cap or a label only (N-terminal biotin on a linker: ado-ado).
Chain of TJP1_2, Q07157 (Q07157 181-274): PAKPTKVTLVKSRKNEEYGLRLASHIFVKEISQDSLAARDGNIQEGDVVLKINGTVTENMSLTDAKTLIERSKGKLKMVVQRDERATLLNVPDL
B1 registered a pKd of 3.62.
Molecule B2 returned a negative-log Kd (pKd) of 3.69.

Another assay concerns the target TJP2_1, Q9UDY2. In words: holdup assay. The conditions noted are these: plain residues with an end cap or a label only (N-terminal biotin on a linker: ado-ado). Further details: key: below the threshold = too weak to quantify, mostly under pKd 3.1 to 4.
As to B1, the pKd entry is “below the threshold”.
Same read-out and setting: with B2 the entry was “below the threshold”.

In the next assay the target is T13, TJP3_3, O95049. In words: holdup assay. The conditions noted are these: plain residues with an end cap or a label only (N-terminal biotin on a linker: ado-ado). Further details: key: below the threshold = too weak to quantify, mostly under pKd 3.1 to 4.
Turning to B1, the negative logarithm of the Kd (pKd) result was “below the threshold”.
The same measure, in the same setting: with B2 the entry was “below the threshold”.
